Key:
[1] = biological target: peptides 11 and 23 (human); test: pairing sandwich ELISA, biotinylated antibody as detector, target titrated
[2] = biological target: peptides 11 and 23 (human); test: pairing sandwich ELISA, antibody coated as capture, target titrated

B1: ACI-8070-942.30D12-Ab1 (antibody, V domains shown)
VH: DVQLVESGGGLVQPGGSRKLSCEASGFTFSSIGMHWVRQAPEKGLEWVAYITSGSSTIYYADTVKGRFTISRDNPKNTLFLQMTSLRSEDTAIYYCAGSGPGTDYWGQGTTLTVSS
VL: DIKMTQSPSSMYASLGERVTITCKASQDINSYLSWFQQKPGKSPKTLIYRANRLVDGVPSRFSGSGSGQDYSLTISSLEYEDMGIYYCLQYDEFPLTFGAGTKLELK
EC50 [1]: 56 pM | EC50 [2]: 904 pM
